What was measured:
[1] = biological target: T1, phosphoinositide-dependent kinase-1 (PDK1), O15530
T1 chain: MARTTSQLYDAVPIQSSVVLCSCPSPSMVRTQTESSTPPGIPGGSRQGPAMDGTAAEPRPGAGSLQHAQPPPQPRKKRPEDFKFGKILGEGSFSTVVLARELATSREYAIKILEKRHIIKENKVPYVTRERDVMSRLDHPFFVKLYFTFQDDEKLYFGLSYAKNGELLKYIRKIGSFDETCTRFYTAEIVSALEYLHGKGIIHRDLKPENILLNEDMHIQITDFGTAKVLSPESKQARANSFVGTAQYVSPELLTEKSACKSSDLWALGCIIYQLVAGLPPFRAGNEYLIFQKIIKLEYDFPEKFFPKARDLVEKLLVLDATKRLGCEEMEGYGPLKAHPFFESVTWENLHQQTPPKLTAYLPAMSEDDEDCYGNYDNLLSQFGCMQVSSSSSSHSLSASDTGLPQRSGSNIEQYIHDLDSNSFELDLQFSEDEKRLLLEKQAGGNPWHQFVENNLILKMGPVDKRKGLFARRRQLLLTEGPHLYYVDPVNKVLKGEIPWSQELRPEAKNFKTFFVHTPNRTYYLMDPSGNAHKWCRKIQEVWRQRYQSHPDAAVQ

[2] = biological target: Myc-RhoC (N-terminal Myc epitope-tagged full-length human RhoC)
Myc-RhoC (N-terminal Myc epitope-tagged full-length human RhoC), sequence (chain, as listed by the source): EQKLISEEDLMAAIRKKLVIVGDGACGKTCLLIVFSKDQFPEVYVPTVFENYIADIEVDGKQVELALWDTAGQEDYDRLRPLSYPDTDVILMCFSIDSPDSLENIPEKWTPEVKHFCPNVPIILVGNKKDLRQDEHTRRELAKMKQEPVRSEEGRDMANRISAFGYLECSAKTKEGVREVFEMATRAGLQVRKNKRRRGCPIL

B1: Flag-PKN3 wt (N-terminal Flag epitope-tagged full-length kinase active human PKN3) (protein)
chain: DYKDDDKMEEGAPRQPGPSQWPPEDEKEVIRRAIQKELKIKEGVENLRRVATDRRHLGHVQQLLRSSNRRLEQLHGELRELHARILLPGPGPGPAEPVASGPRPWAEQLRARHLEALRRQLHVELKVKQGAENMTHTCASGTPKERKLLAAAQQMLRDSQLKVALLRMKISSLEASGSPEPGPELLAEELQHRLHVEAAVAEGAKNVVKLLSSRRTQDRKALAEAQAQLQESSQKLDLLRLALEQLLEQLPPAHPLRSRVTRELRAAVPGYPQPSGTPVKPTALTGTLQVRLLGCEQLLTAVPGRSPAAALASSPSEGWLRTKAKHQRGRGELASEVLAVLKVDNRVVGQTGWGQVAEQSWDQTFVIPLERARELEIGVHWRDWRQLCGVAFLRLEDFLDNACHQLSLSLVPQGLLFAQVTFCDPVIERRPRLQRQERIFSKRRGQDFLRASQMNLGMAAWGRLVMNLLPPCSSPSTISPPKGCPRTPTTLREASDPATPSNFLPKKTPLGEEMTPPPKPPRLYLPQEPTSEETPRTKRPHMEPRTRRGPSPPASPTRKPPRLQDFRCLAVLGRGHFGKVLLVQFKGTGKYYAIKALKKQEVLSRDEIESLYCEKRILEAVGCTGHPFLLSLLACFQTSSHACFVTEFVPGGDLMMQIHEDVFPEPQARFYVACVVLGLQFLHEKKIIYRDLKLDNLLLDAQGFLKIADFGLCKEGIGFGDRTSTFCGTPEFLAPEVLTQEAYTRAVDWWGLGVLLYEMLVGECPFPGDTEEEVFDCIVNMDAPYPGFLSVQGLEFIQKLLQKCPEKRLGAGEQDAEEIKVQPFFRTTNWQALLARTIQPPFVPTLCGPADLRYFEGEFTGLPPALTPPAPHSLLTARQQAAFRDFDFVSERFLEP
Q: What does the source list for B1?
A: kinase activity of the anti-Flag immunoprecipitate toward the PKN3 substrate (GSK3α-derived fragment, SEQ ID NO:1), Western blot [1]: the kinase activity is greatest for the PPRC complex than either PKN3 alone, or PKN3 and RhoC combined; kinase activity of the anti-Flag immunoprecipitate toward the PKN3 substrate (GSK3α-derived fragment, SEQ ID NO:1), Western blot [2]: the kinase activity is greatest for the PPRC complex than either PKN3 alone, or PKN3 and RhoC combined

From patent US20120100561
